For assay [1], the target named is T1, SARS-CoV-2原型株RBD蛋白 (SARS-CoV-2, UniProt P0DTC2 320-550). As to the kind of experiment: BLI, prototype RBD on the sensor, antibody in solution.
A further assay has as its target SARS-CoV-2原型株(Wt)假病毒的S蛋白 (SARS-CoV-2, UniProt P0DTC2 14-1273). In words: cell-based or functional assay.
In assay [2] the target is T1, SARS-CoV-2原型株RBD蛋白. As to the kind of experiment: ELISA, coated antigen.
The next assay addresses T2, SARS-CoV-2原型株NTD蛋白 (SARS-CoV-2, UniProt P0DTC2 16-294).
T2 construct: range 16-294
As to the kind of experiment: ELISA, coated antigen.

B1: 单抗5G2 (antibody)
heavy: EVLLQQSGPELVKPGASVKIPCKASGYTFTDYNMDWVKQSHGKSLEWIGDINPNSGFIIYNQKFKGKASLTVDKSSSTAYMELRSLTSEDTAVYYCAREGYGNNFDYWGQGTTLSVSSAKTTPPSVYPLAPGCGDTTGSSVTLGCLVKGYFPESVTVTWNSGSLSSSVHTFPALLQSGLYTMSSSVTVPSSTWPSQTVTCSVAHPASSTTVDKKLEPSGPISTINPCPPCKECHKCPAPNLEGGPSVFIFPPNIKDVLMISLTPKVTCVVVDVSEDDPDVQISWFVNNVEVHTAQTQTHREDYNSTIRVVSTLPIQHQDWMSGKEFKCKVNNKDLPSPIERTISKIKGLVRAPQVYILPPPAEQLSRKDVSLTCLVVGFNPGDISVEWTSNGHTEENYKDTAPVLDSDGSYFIYSKLNMKTSKWEKTDSFSCNVRHEGLKNYYLKKTISRSPGK
light: DILLTQSPTILSVSPGERVSFSCRASQSIGTSIHWYQQRTKGSPRLLIKYASESISGIPSRFSGSGSGTDFTLSINSVESEDIGDYYCQQSYSWPTTFGAGTKLELK
notes: also called 抗体5G2
In the assay with SARS-CoV-2原型株RBD蛋白 [1], B1 had a Kd of less than 1 pM. The “半数抑制浓度(IC50), 假病毒中和试验” value with SARS-CoV-2原型株(Wt)假病毒的S蛋白 was 0.293 µg/mL.

B2: 单抗3H3 (antibody, V domains shown)
VH: QVQLQQPGAELVRPGASVKLSCKASGYSFTRFWMNWVKQRPGQGLEWIGMIHPSDSETRLNQKFKDKATLTVDKSSTTAYMQLSSPTSEDSAVYYCARKDYDYDAWFAYWGQGTLVTVSA
VL: DIVLTQSPASLAVSLGQRATISCRASKSVSASVYSYMHWYQQKPGQPPKLLIYLASSLESGVPARFSGSGSGTDFTLNIHPVEEEDAATYYCHHSRELPPAFGGGTKLEIKR
notes: also called 抗体3H3
As for B2, the binding result with SARS-CoV-2原型株RBD蛋白 [2] and with SARS-CoV-2原型株NTD蛋白 was “no binding” in each case. For the same molecule, in the assay with SARS-CoV-2原型株(Wt)假病毒的S蛋白, the “中和IC50, 假病毒中和试验” value is 0.083 µg/mL.
